# According to US20090118185A1 (UNIVERSITY OF ROCHESTER, published 2009):
# T1: 336(P1′-P3′)562 factor VIIIa mutant
# T1 chain 1: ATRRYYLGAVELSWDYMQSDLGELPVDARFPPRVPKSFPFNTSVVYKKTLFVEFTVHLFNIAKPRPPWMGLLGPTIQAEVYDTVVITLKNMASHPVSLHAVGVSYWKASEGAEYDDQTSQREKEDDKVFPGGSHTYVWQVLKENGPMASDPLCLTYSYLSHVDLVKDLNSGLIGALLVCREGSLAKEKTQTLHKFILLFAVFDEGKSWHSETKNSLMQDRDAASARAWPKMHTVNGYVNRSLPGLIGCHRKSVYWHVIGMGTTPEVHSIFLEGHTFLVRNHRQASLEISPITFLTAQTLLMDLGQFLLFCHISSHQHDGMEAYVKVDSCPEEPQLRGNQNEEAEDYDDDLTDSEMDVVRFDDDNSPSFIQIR
# T1 chain 2: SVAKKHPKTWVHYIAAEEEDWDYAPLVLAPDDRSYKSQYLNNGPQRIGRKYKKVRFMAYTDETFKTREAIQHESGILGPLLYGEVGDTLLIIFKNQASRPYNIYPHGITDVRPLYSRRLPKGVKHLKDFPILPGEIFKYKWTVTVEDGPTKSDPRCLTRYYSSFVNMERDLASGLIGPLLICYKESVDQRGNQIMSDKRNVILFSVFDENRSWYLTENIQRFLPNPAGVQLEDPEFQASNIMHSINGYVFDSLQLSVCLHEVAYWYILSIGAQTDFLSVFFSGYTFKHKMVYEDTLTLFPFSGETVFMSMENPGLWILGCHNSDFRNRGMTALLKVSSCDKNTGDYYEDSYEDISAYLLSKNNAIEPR
# T1 chain 3: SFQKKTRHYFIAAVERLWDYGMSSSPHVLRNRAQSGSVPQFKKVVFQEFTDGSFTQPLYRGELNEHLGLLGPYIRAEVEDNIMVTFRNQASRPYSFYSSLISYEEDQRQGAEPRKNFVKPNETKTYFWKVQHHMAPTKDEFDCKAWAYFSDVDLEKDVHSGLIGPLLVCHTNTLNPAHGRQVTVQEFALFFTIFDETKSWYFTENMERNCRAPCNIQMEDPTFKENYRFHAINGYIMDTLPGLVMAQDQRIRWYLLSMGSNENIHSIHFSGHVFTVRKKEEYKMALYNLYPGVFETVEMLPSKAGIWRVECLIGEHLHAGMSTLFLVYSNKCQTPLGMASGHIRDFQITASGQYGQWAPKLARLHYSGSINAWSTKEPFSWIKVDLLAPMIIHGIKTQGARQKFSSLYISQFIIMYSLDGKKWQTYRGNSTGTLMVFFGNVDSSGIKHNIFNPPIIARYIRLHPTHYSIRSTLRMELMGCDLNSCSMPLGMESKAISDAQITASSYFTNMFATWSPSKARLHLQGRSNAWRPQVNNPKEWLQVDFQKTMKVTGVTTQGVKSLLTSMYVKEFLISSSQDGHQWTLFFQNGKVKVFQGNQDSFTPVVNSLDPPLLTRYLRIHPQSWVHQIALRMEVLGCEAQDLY
# T2: 336(P4-P3′)562 factor VIIIa mutant
# T2 chain 1: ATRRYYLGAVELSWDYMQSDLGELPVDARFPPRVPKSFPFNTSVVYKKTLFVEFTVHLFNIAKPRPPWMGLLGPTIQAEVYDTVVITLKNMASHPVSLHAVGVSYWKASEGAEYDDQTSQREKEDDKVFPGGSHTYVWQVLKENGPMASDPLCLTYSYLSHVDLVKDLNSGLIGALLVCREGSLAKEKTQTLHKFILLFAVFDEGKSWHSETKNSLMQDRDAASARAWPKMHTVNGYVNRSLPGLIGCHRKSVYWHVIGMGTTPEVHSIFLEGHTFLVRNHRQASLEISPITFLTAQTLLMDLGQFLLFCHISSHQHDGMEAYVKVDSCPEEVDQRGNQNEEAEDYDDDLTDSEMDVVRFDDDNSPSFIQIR
# T2 chain 2: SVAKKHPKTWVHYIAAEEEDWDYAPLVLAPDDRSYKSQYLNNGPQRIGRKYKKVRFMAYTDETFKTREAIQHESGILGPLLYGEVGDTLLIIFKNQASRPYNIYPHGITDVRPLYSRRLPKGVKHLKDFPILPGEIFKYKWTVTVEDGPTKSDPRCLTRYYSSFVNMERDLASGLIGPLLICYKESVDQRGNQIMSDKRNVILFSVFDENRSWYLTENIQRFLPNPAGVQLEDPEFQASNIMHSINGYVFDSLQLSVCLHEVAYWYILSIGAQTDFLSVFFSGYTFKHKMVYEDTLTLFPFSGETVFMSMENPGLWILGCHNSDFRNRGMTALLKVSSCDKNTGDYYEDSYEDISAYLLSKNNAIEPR
# T2 chain 3: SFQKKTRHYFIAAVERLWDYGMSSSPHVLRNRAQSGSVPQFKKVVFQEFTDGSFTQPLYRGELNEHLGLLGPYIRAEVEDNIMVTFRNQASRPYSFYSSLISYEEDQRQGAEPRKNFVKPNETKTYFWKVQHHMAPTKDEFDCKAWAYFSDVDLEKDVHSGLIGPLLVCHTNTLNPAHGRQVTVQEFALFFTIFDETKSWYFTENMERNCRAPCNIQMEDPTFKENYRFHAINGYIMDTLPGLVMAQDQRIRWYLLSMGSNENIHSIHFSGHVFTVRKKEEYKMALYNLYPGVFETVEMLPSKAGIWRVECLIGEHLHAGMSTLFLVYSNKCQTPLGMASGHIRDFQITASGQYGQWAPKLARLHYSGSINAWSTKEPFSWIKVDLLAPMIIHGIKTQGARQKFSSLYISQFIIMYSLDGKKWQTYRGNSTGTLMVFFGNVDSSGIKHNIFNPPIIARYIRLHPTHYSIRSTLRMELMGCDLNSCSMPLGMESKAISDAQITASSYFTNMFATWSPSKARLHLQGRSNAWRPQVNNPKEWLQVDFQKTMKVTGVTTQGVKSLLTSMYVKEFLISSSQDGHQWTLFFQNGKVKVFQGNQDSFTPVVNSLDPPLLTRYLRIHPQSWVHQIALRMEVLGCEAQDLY
# T3: 562(P4-P2)336 factor VIIIa mutant
# T3 chain 1: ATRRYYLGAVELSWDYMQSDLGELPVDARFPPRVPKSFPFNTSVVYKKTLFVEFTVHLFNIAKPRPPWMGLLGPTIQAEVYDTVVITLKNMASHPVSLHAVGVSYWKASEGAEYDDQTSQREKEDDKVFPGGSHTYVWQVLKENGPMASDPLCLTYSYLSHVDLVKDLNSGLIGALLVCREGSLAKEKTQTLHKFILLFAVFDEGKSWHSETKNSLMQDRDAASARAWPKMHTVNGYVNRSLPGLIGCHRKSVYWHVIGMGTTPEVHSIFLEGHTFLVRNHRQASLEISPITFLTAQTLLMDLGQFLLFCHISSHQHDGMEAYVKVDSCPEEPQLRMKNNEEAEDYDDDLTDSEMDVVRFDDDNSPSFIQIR
# T3 chain 2: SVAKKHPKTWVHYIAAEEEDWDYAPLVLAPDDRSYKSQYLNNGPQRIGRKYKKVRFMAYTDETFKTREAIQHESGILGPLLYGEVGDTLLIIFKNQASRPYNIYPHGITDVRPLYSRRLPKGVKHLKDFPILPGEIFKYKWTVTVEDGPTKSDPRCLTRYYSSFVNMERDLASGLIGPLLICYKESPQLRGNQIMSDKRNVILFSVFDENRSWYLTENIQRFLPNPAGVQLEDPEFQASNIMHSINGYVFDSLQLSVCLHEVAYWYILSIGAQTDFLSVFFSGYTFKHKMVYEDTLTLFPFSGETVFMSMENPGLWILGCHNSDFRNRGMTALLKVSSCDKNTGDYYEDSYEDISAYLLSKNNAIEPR
# T3 chain 3: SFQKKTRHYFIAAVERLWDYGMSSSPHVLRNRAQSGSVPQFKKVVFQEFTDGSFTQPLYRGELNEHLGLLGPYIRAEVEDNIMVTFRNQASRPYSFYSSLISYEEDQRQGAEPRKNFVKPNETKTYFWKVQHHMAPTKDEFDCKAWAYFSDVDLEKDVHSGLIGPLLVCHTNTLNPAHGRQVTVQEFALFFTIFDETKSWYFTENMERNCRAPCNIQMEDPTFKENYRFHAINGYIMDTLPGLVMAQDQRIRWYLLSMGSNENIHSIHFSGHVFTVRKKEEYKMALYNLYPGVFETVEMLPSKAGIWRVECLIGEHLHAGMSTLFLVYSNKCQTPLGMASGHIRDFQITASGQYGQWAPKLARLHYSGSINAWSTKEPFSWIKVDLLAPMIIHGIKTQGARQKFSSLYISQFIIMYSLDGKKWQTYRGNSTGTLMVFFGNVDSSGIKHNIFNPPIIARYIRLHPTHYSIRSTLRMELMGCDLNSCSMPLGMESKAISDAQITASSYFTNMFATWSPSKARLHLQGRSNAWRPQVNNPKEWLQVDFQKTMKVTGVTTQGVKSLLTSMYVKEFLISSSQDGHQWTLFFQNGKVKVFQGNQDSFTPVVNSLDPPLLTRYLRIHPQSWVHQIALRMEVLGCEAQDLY
# Key:
# [1] = target: T1, 336(P1′-P3′)562 factor VIIIa mutant
# [2] = target: T2, 336(P4-P3′)562 factor VIIIa mutant
# [3] = target: T3, 562(P4-P2)336 factor VIIIa mutant
protein,measurement,setting,value
human activated protein C (protein) chain 1: ANSFLEELRHSSLERECIEEICDFEEAKEIFQNVDDTLAFWSKHVDGDQCLVLPLEHPCASLCCGHGTCIDGIGSFSCDCRSGWEGRFCQREVSFLNCSLDNGGCTHYCLEEVGWRRCSCAPGYKLGDDLLQCHPAVKFPCGRPWKRMEKKRSHL chain 2: LIDGKMTRRGDSPWQVVLLDSKKKLACGAVLIHPSWVLTAAHCMDESKKLLVRLGEYDLRRWEKWELDLDIKEVFVHPNYSKSTTDNDIALLHLAQPATLSQTIVPICLPDSGLAERELNQAGQETLVTGWGYHSSREKEAKRNRTFVLNFIKIPVVPHNECSEVMSNMVSENMLCAGILGDRQDACEGDSGGPMVASFHGTWFLVGLVSWGEGCGLLHNYGVYTKVSRYLDWIHGHIRDKEAPQKSWAP,A1 Cleavage (nM A1/min/nM APC) (nM A1/min/nM APC),[1],1.1
same,A2 Cleavage (nM A2/min/nM APC) (nM A2/min/nM APC),[1],0.3
same,fold reduction of cleavage rate at the A1 site compared with WT,[1],"reduced ˜16 and ˜9-fold, respectively, as compared with the WT protein"
same,A1 Cleavage (nM A1/min/nM APC) (nM A1/min/nM APC),[2],0.1
same,A2 Cleavage (nM A2/min/nM APC) (nM A2/min/nM APC),[2],0.05
same,fold reduction of A1 subunit cleavage rate relative to WT,[2],reduced by ˜100-fold relative to WT
same,A1 Cleavage (nM A1/min/nM APC) (nM A1/min/nM APC),[3],7.4
same,A2 Cleavage (nM A2/min/nM APC) (nM A2/min/nM APC),[3],0.7
